Measurements from the supplement of paper PMC9112550, “Optimization of the antimicrobial peptide Bac7 by deep mutational scanning” (BMC Biology, 2022).

test system: Escherichia coli TOP10; experiment: shrunken log2 fold change of peptide-encoding DNA abundance (4.5 h post-induction vs induction); higher = less antimicrobial activity (less host growth inhibition); conditions: time post-induction: 4.5 h; library: site-saturation at positions 5, 18, 19, 20
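Also: peptides expressed intracellularly from a pBAD plasmid library in pooled LB shake-flask culture, induced with 0.3% L-arabinose, DNA abundance read by NGS, three biological replicates, DESeq2 with apeglm shrinkage.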

Row | Sequence | shrunken log2 fold change
1 | RRIRGRPPRLPRPRPRPKKQPRP | 0.0981
2 | RRIRERPPRLPRPRPRPQCYPRP | -0.186
3 | RRIRHRPPRLPRPRPRPTFSPRP | -0.22
4 | RRIRDRPPRLPRPRPRPPEGPRP | 0.76
5 | RRIRTRPPRLPRPRPRPGYTPRP | 0.0635
6 | RRIRYRPPRLPRPRPRPMFSPRP | -1.07
7 | RRIRQRPPRLPRPRPRPFDKPRP | -0.0121
8 | RRIRRRPPRLPRPRPRPFYFPRP | 0.116
9 | RRIRERPPRLPRPRPRPLNMPRP | -0.528
10 | RRIRVRPPRLPRPRPRPWLIPRP | -0.277
11 | RRIRHRPPRLPRPRPRPSGHPRP | -0.172
12 | RRIRKRPPRLPRPRPRPSCAPRP | 0.523
13 | RRIRVRPPRLPRPRPRPDSRPRP | 0.0857
14 | RRIRWRPPRLPRPRPRPITWPRP | 0.0636
15 | RRIRRRPPRLPRPRPRPVQTPRP | 0.178
16 | RRIRIRPPRLPRPRPRPELMPRP | -0.00872
17 | RRIRSRPPRLPRPRPRPYIWPRP | -0.108
18 | RRIRVRPPRLPRPRPRPIQEPRP | -0.169
19 | RRIRLRPPRLPRPRPRPGCKPRP | -0.0977
20 | RRIRFRPPRLPRPRPRPNRCPRP | -0.717
21 | RRIRGRPPRLPRPRPRPSRSPRP | 0.253
22 | RRIRNRPPRLPRPRPRPCHDPRP | -0.0458
23 | RRIRSRPPRLPRPRPRPYSQPRP | -0.0604
24 | RRIRGRPPRLPRPRPRPVIYPRP | 0.0164
25 | RRIRRRPPRLPRPRPRPRMFPRP | 0.556

Row | Sequence | shrunken log2 fold change
26 | RRIRWRPPRLPRPRPRPQFCPRP | -0.0503
27 | RRIRTRPPRLPRPRPRPQMRPRP | 0.472
28 | RRIRKRPPRLPRPRPRPDMPPRP | 0.122
29 | RRIRWRPPRLPRPRPRPAMTPRP | 0.299
30 | RRIRNRPPRLPRPRPRPTNYPRP | -0.73
31 | RRIRERPPRLPRPRPRPWSPPRP | -0.0132
32 | RRIRPRPPRLPRPRPRPNIQPRP | -0.404
33 | RRIRMRPPRLPRPRPRPSYVPRP | -0.331
34 | RRIRLRPPRLPRPRPRPVMLPRP | -0.495
35 | RRIRDRPPRLPRPRPRPAYIPRP | -0.0656
36 | RRIRTRPPRLPRPRPRPCKNPRP | -0.33
37 | RRIRYRPPRLPRPRPRPRYFPRP | -0.212
38 | RRIRHRPPRLPRPRPRPKSDPRP | -0.255
39 | RRIRARPPRLPRPRPRPTNWPRP | 0.835
40 | RRIRRRPPRLPRPRPRPEVFPRP | 0.0496
41 | RRIRQRPPRLPRPRPRPTEHPRP | -0.00172
42 | RRIRFRPPRLPRPRPRPNMSPRP | -0.54
43 | RRIRRRPPRLPRPRPRPPWNPRP | 0.474
44 | RRIRPRPPRLPRPRPRPESIPRP | -0.0804
45 | RRIRCRPPRLPRPRPRPSFEPRP | -0.508
46 | RRIRERPPRLPRPRPRPSIKPRP | -0.755
47 | RRIRHRPPRLPRPRPRPGQKPRP | 0.00748
48 | RRIRWRPPRLPRPRPRPPLGPRP | 0.416
49 | RRIRQRPPRLPRPRPRPPITPRP | -0.0813
50 | RRIRYRPPRLPRPRPRPCNWPRP | -0.0748

Row | Sequence | shrunken log2 fold change
51 | RRIRDRPPRLPRPRPRPDPWPRP | 0.295
52 | RRIRRRPPRLPRPRPRPEWDPRP | 0.426
53 | RRIRDRPPRLPRPRPRPQTPPRP | 0.4
54 | RRIRDRPPRLPRPRPRPIGNPRP | 0.279
55 | RRIRMRPPRLPRPRPRPKSPPRP | 0.325
56 | RRIRFRPPRLPRPRPRPRLDPRP | 0.0416
57 | RRIRCRPPRLPRPRPRPLVGPRP | 3.69
58 | RRIRTRPPRLPRPRPRPAEFPRP | -0.355
59 | RRIRCRPPRLPRPRPRPYVCPRP | -0.11
60 | RRIRPRPPRLPRPRPRPIVFPRP | -0.293
61 | RRIRRRPPRLPRPRPRPYPVPRP | 0.0514
62 | RRIRLRPPRLPRPRPRPTVYPRP | -0.146
63 | RRIRQRPPRLPRPRPRPQNIPRP | -0.882
64 | RRIRARPPRLPRPRPRPTFFPRP | 0.197
65 | RRIRGRPPRLPRPRPRPLHTPRP | 0.851
66 | RRIRSRPPRLPRPRPRPHCIPRP | 0.021
67 | RRIRVRPPRLPRPRPRPSHFPRP | -0.443
68 | RRIRERPPRLPRPRPRPSTPPRP | -0.28
69 | RRIRVRPPRLPRPRPRPHTEPRP | -0.042
70 | RRIRKRPPRLPRPRPRPWHGPRP | -0.165
71 | RRIRSRPPRLPRPRPRPACPPRP | 0.413
72 | RRIRKRPPRLPRPRPRPQYEPRP | 0.0265
73 | RRIRIRPPRLPRPRPRPHTDPRP | -0.777
74 | RRIRRRPPRLPRPRPRPLPSPRP | 0.752
75 | RRIRLRPPRLPRPRPRPYTYPRP | -0.235

Row | Sequence | shrunken log2 fold change
76 | RRIRVRPPRLPRPRPRPTSHPRP | -0.139
77 | RRIRRRPPRLPRPRPRPSRCPRP | -0.0309
78 | RRIRFRPPRLPRPRPRPTSRPRP | -0.291
79 | RRIRCRPPRLPRPRPRPAPTPRP | 0.591
80 | RRIRYRPPRLPRPRPRPCPVPRP | -0.143
81 | RRIRIRPPRLPRPRPRPTSIPRP | -0.182
82 | RRIRCRPPRLPRPRPRPACEPRP | 0.112
83 | RRIRERPPRLPRPRPRPPPIPRP | 0.267
84 | RRIRIRPPRLPRPRPRPKWGPRP | -0.00761
85 | RRIRKRPPRLPRPRPRPPHAPRP | 0.728
86 | RRIRHRPPRLPRPRPRPNWAPRP | -0.0735
87 | RRIRFRPPRLPRPRPRPPWWPRP | 0.651
88 | RRIRLRPPRLPRPRPRPRECPRP | -0.104
89 | RRIRPRPPRLPRPRPRPFRRPRP | 0.0448
90 | RRIRARPPRLPRPRPRPYYLPRP | -0.539
91 | RRIRYRPPRLPRPRPRPGHWPRP | -0.135
92 | RRIRFRPPRLPRPRPRPRIDPRP | -0.0186
93 | RRIRARPPRLPRPRPRPDQTPRP | -0.0212
94 | RRIRIRPPRLPRPRPRPPYGPRP | -0.202
95 | RRIRYRPPRLPRPRPRPVYSPRP | 4.05
96 | RRIRNRPPRLPRPRPRPEKIPRP | -0.0207
97 | RRIRDRPPRLPRPRPRPDMLPRP | 0.00888
98 | RRIRPRPPRLPRPRPRPVIGPRP | 0.0389
99 | RRIRMRPPRLPRPRPRPWFIPRP | -0.183
100 | RRIRVRPPRLPRPRPRPLTDPRP | 0.0682

Row | Sequence | shrunken log2 fold change
101 | RRIRDRPPRLPRPRPRPHPNPRP | -0.662
102 | RRIRQRPPRLPRPRPRPLFSPRP | -0.258
103 | RRIRMRPPRLPRPRPRPRSDPRP | 0.722
104 | RRIRLRPPRLPRPRPRPYCDPRP | -0.328
105 | RRIRMRPPRLPRPRPRPFTDPRP | 0.174
106 | RRIRGRPPRLPRPRPRPILNPRP | -0.0611
107 | RRIRPRPPRLPRPRPRPKDPPRP | 0.165
108 | RRIRTRPPRLPRPRPRPVTLPRP | -0.37
109 | RRIRIRPPRLPRPRPRPSMRPRP | -0.000106
110 | RRIRIRPPRLPRPRPRPPCGPRP | -0.239
111 | RRIRHRPPRLPRPRPRPGPMPRP | 0.247
112 | RRIRHRPPRLPRPRPRPIWRPRP | 0.139
113 | RRIRYRPPRLPRPRPRPYWQPRP | -0.000687
114 | RRIRERPPRLPRPRPRPDALPRP | -0.0722
115 | RRIRPRPPRLPRPRPRPGIKPRP | -0.0194
116 | RRIRPRPPRLPRPRPRPPICPRP | -0.474
117 | RRIRKRPPRLPRPRPRPVYCPRP | -0.199
118 | RRIRHRPPRLPRPRPRPLQPPRP | 0.157
119 | RRIRTRPPRLPRPRPRPGGAPRP | 0.38
120 | RRIRKRPPRLPRPRPRPEVKPRP | 0.085
121 | RRIRTRPPRLPRPRPRPEKAPRP | 0.00451
122 | RRIRWRPPRLPRPRPRPWIGPRP | 0.0176
123 | RRIRARPPRLPRPRPRPRDEPRP | 1.06
124 | RRIRARPPRLPRPRPRPWTHPRP | 0.04
125 | RRIRIRPPRLPRPRPRPGYDPRP | -0.576

Row | Sequence | shrunken log2 fold change
126 | RRIRTRPPRLPRPRPRPVEKPRP | -0.016
127 | RRIRERPPRLPRPRPRPLWAPRP | 0.274
128 | RRIRFRPPRLPRPRPRPQGAPRP | -0.0798
129 | RRIRGRPPRLPRPRPRPVNFPRP | 0.44
130 | RRIRWRPPRLPRPRPRPVMYPRP | -0.0288
131 | RRIRNRPPRLPRPRPRPWHKPRP | -0.0524
132 | RRIRARPPRLPRPRPRPLALPRP | 0.668
133 | RRIRMRPPRLPRPRPRPKCDPRP | 0.318
134 | RRIRPRPPRLPRPRPRPHIYPRP | -0.576
135 | RRIRRRPPRLPRPRPRPTTLPRP | 0.0363
136 | RRIRKRPPRLPRPRPRPSVRPRP | 0.528
137 | RRIRCRPPRLPRPRPRPVMEPRP | -0.0475
138 | RRIRIRPPRLPRPRPRPWSPPRP | -0.269
139 | RRIRPRPPRLPRPRPRPRGNPRP | -0.16
140 | RRIRKRPPRLPRPRPRPQCDPRP | 0.279
141 | RRIRMRPPRLPRPRPRPLKDPRP | 0.0898
142 | RRIRGRPPRLPRPRPRPICPPRP | 0.114
143 | RRIRGRPPRLPRPRPRPQVSPRP | 0.0928
144 | RRIRQRPPRLPRPRPRPYANPRP | -0.264
145 | RRIRIRPPRLPRPRPRPNDMPRP | -1.13
146 | RRIRLRPPRLPRPRPRPTNWPRP | 0.0175
147 | RRIRNRPPRLPRPRPRPLDGPRP | -0.0308
148 | RRIRPRPPRLPRPRPRPWVWPRP | 0.267
149 | RRIRPRPPRLPRPRPRPCLIPRP | -0.129
150 | RRIRNRPPRLPRPRPRPYHEPRP | -0.342
